Measured values as given in US20260158064A1 (NANJING PROBIO BIOTECH, published 2026).
Where a chain is given by its changes, count along the chain named.

B1: single domain antibody AHP15485-VHH4-Variant2 (Fc fusion)
chain: EVQLVESGGGLVQPGGSLRLSCAASGRSFSSFQMGWFRQAPGKEREFVAASGWSGGPTYYWDSVIGRFTISTDNSKNTLYLQMNSLRAEDTAVYYCYEDRVLSGRPVRYWGQGTLVTVSS
notes: Fc format is inferred; not shown: human IgG1 Fc; vector and li
B2: single domain antibody AHP15485-VHH4-Variant1 (Fc fusion)
chain: B1 chain with S31N
notes: as for B1
B3: humanized single domain antibody AHP15485-VHH4 (Fc fusion)
chain: B1 chain with S31N, W61A, I65K
notes: Humanized VHH expressed from pcDNA3.4-Fc (Human IgG1); not shown: human IgG1 Fc of the pcDNA3.4-Fc (Human IgG1) expression vector
B4: single domain antibody AHF22018 (Fc fusion)
chain: B1 chain with V64W, I65K, P106W
notes: not shown: human IgG1 Fc; vector and li
B5: single domain antibody AHF22013 (Fc fusion)
chain: B1 chain with P106H
notes: as for B1
B6: single domain antibody AHF21719 (Fc fusion)
chain: EVQLVESGGGLVQPGGSLRLSCAASGYISRFYAMGWYRQAPGKQRELVARISSGGWTYYADSVKGRFTISIDNSKNTLYLQMNSLRAEDTAVYYCNARNLWGQGTLVTVSS
notes: as for B1
B7: single domain antibody AHF21720 (Fc fusion)
chain: B6 chain with G54L
notes: as for B1
B8: humanized single domain antibody AHP15662-VHH4 (Fc fusion)
chain: B6 chain with Y27S, M34V, W56S
notes: as for B3
B9: single domain antibody AHP15662-VHH4-Variant2 (Fc fusion)
chain: B6 chain with G26Y, Y27F, M34V
notes: as for B1
B10: single domain antibody AHF21711 (Fc fusion)
chain: B6 chain with G26H, Y27S, M34I, G54M, W56R
notes: as for B1
B11: single domain antibody AHF21721 (Fc fusion)
chain: B6 chain with Y27F, G54M
notes: as for B1
B12: single domain antibody AHP15662-VHH4-Variant1 (Fc fusion)
chain: B6 chain with G26Y, M34V
notes: as for B1
B13: single domain antibody AHP15662-VHH4-Variant3 (Fc fusion)
chain: B6 chain with G26H, M34V
notes: as for B1
B14: single domain antibody AHP15776 (Fc fusion)
chain: QVQLVESGGGLVQPGGSLTLSCAASQSISSIYLLGWYRQAPGKERESVARITTSGTTTYIADSVKGRFTLSRDNAKNTMYLQMNSLKPEDTAVYYCNVPFLVATARGNAYWGQGTQVTVSS
notes: VHH expressed from pcDNA3.4-Fc (HuIgG1); not shown: human IgG1 Fc of the pcDNA3.4-Fc (HuIgG1) expression vector
B15: single domain antibody AHP15662 (Fc fusion)
chain: B6 chain with S17T, Y27S, M34V, W56S, D72N, L78V, S84N, R86K, A87P, L106Q
notes: VHH expressed from pcDNA3.4-Fc (HuIgG1); also called AHP15662-VHH; not shown: human IgG1 Fc of the pcDNA3.4-Fc (HuIgG1) expression vector
B16: single domain antibody AHP15547 (Fc fusion)
chain: AVQLVDSGGGSVQPGESLTLSCTGSARFLSNYGMGWYRQFPGKMREMVAYETNRGNKRYAESVKGRFRIARDAAKTTVYLEMNSLKPEDTAVYYCNAESSGWGRRNYWGQGTQVTVSS
notes: as for B14
B17: single domain antibody AHP15485 (Fc fusion)
chain: EVQLVESGGGLAQAGGSLSLSCTASGRSFSNFQMGWFRQAPGKEREFVAASGWSGGPTYYADSVKGRFTISTDDSKKTMYLQMNSLKPEDTAAYYCYEDRVLSGRPVRYWGRGTQVTVSS
notes: Alpaca VHH expressed from pcDNA3.4-Fc (HuIgG1) in HEK293-6E; also called AHP15485-VHH; not shown: human IgG1 Fc of the pcDNA3.4-Fc (HuIgG1) expression vector
B18: single domain antibody AHP15773 (Fc fusion)
chain: EVQLVESGGGLVQPGGSLRLSCLASGSDFSDSAMGWYRQAPGKQREFVAAIGAGGITTYADSVKGRFTISRDSAKNIVYLQMSSLSPEDTAVYFCNFAPGWYPPGYQYWGQGTQVTVSS
notes: VHH expressed from pcDNA3.4-Fc (HuIgG1); also called AHP15773-VHH; not shown: human IgG1 Fc of the pcDNA3.4-Fc (HuIgG1) expression vector
B19: humanized single domain antibody AHP15773-VHH4 (Fc fusion)
chain: B18 chain with L23A, S73N, I77T, V78L, S83N, S86R, P87A, Q114L
notes: as for B3

What follows are binders tested against T1, human ROR1-His protein (fused with a His protein tag, Acrobiosystems, RO1-H522y) (human, UniProt Q01973 30-403) (assay: SPR Biacore T200, method as Example 6 (antibody Fc-captured, antigen as analyte)).
T1 construct: also called recombinant human ROR1-His protein; not shown: His tag
Description: (§1) The affinity of purified antibodies for human ROR1-related proteins was determined separately using the surface plasmon resonance (SPR) biosensor Biacore T200 (GE Healthcare). The antibodies were immobilized on the sensor chip by the Fc capture method. Human ROR1-related proteins were used as analytes. Data for dissociation (kd) and association (ka) rate constants were obtained using the Biacore T200 evaluation software. The equilibrium dissociation constant (KD) was calculated from the ratio of kd to ka.
(§2) According to the mutation status of the improved clones in the precise saturation mutation library, the combinatorial mutations and the relevant primers for library construction for the second round were designed. The combinatorial mutation library construction was performed still using the prokaryotic soluble expression plasmid of the humanized single domain antibody as the template. The subsequent screening process was the same as that for the precise saturation mutation library. Finally, the top 5 or 7 clones ranked by the improvement fold in affinity were selected for recombinant verification. 5 clones with improved affinity (AHF22016, AHF22018, AHF22013, AHP15485-VHH4-Variant1, and AHP15485-VHH4-Variant2) were obtained from the humanized antibody AHP15485 through affinity maturation screening, and were subjected to eukaryotic expression and purification, as well as subsequent affinity detection at various concentrations. 7 clones (AHP15662-VHH4-Variant1, AHP15662-VHH4-Variant2, AHP15662-VHH4-Variant3, AHF21711, AHF21719, AHF21720, and AHF21721) were obtained from AHP15662-VHH4.

T1 sequence (Q01973 30-403 limits assumed): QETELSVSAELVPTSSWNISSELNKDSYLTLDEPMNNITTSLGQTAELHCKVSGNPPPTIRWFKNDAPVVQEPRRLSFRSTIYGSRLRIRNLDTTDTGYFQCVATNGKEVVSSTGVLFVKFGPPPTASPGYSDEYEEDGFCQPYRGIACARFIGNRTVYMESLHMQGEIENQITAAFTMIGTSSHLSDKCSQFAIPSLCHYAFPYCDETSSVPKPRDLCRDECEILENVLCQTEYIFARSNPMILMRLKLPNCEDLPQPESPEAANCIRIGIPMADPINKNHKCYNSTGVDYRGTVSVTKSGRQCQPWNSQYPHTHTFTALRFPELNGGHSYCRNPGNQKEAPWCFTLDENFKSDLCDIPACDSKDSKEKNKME

Kd [nM] | koff [s⁻¹] | kon [M⁻¹ s⁻¹] | Binder
21.4 | 0.0018 | 84000 | B1
184 | 0.0153 | 83100 | B2
290 | 0.0547 | 189000 | B3
20.3 | 0.000884 | 43500 | B4
8.91 | 0.000374 | 42000 | B5

Each binder was assayed against T2, human ROR1 Frizzled-His domain protein (amino acid sequence at positions 165-305, Acrobiosystems, RO1-H5222) (human, UniProt Q01973 165-305) in the same assay as above.
T2 construct: also called Human ROR1 Frizzled-His protein; not shown: His tag
Description: as §1, §2

T2 sequence (Q01973 165-305 limits assumed, form in doubt): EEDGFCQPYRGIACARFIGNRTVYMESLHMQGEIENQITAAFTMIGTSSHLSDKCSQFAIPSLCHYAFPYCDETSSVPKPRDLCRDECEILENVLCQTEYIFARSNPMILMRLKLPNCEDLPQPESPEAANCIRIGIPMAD

Kd [nM] | koff [s⁻¹] | kon [M⁻¹ s⁻¹] | Binder
21.6 | 0.00169 | 78100 | B6
16.9 | 0.00124 | 73600 | B7
294 | 0.103 | 350000 | B8
75.3 | 0.0119 | 159000 | B9
19.3 | 0.00174 | 90100 | B10
15.6 | 0.00113 | 72500 | B11
46.3 | 0.00701 | 151000 | B12
39.5 | 0.0062 | 157000 | B13

These binders were tested against T1, human ROR1-His protein (fused with a …) (assay: indirect ELISA, antigen coated at 1 ug/ml).
Description: (§3) Indirect ELISA was used to assess the binding capability of the above purified antibodies to human ROR1-related recombinant proteins. ELISA plates (Nunc) were coated with 1 μg/ml of human ROR1-His protein, human ROR1 Frizzled-His domain protein, and human ROR1 Kringle-His domain protein in 100 μl/well of CBS overnight at 4° C. The plates were washed with PBS-T (0.05% Tween) and blocked with 300 μl/well of PBS containing 3% skim milk at 37° C. for 1 hour. Subsequently, the blocking solution was discarded, and 100 μl of purified antibody at 8 μg/ml (about 100 nM) was added to the first well and diluted according to a 3-fold gradient to obtain a total of 11 test concentration gradients. The plates were then incubated for 1 hour at room temperature. The plates were washed 3 times with PBST and incubated with 100 μl/well of horseradish peroxidase-conjugated mouse anti-human IgG Fc fragment (GenScript) for 0.5 hours at 37° C. The plates were washed five times with PBST, a TMB chromogenic solution (GenScript) was then added, and the plates were incubated for 15 minutes at room temperature in the dark. The reaction was stopped by adding 50 μl of 1 M HCl stop solution (Sigma). The plates were read at 450 nm using a microplate reader. FIGS. 1-3 show the results of the ELISA experiment on the binding of 8 positive recombinant antibody clones to ROR1-related antigen proteins, and the EC₅₀ for each antibody is as shown in Table 2 below: the antigen binding capacity of the antibodies tested was all equal to or higher than that of the positive reference antibody R11-scFv.

EC50 [µg/mL] | Binder
0.0109 | B14
0.0105 | B15
0.0105 | B16
0.0061 | B17
0.0155 | B18

The binders below were run against T2, human ROR1 Frizzled-His domain protein … (assay: indirect ELISA, antigen coated at 1 ug/ml).
Description: as §3

EC50 [µg/mL] | Binder
0.023 | B14
0.0105 | B15
0.0165 | B16

What follows are binders tested against human ROR1 Frizzled-His domain protein (amino acid sequence at positions 165-305, Acrobiosystems, RO1-H5222) (human) (UniProt Q01973) (assay: indirect ELISA, plate coated with human ROR1 Frizzled-His, HRP anti-human IgG Fc, OD450).
human ROR1 Frizzled-His domain protein (amino acid sequence at positions 165-305, Acrobiosystems, RO1-H5222) (human), sequence (Q01973 165-305 limits assumed, form in doubt): as above

EC50 (read off the curve) [µg/mL] | Binder
0.07 | B18

Each binder was assayed against T3, mouse ROR1 expressed on CHO cells (CHO-K1/Mouse ROR1 stable cells) (mouse, UniProt Q9Z139 30-937) (assay: flow cytometry, 10 ug/ml antibody on Mouse ROR1-CHO-K1 cells (curve 2), fluorescent secondary antibody).
T3 construct: whole, on cells
Description: (§4) CHO cells expressing human and mouse ROR1 and parental cells as the negative control for detection were collected and washed 3 times with PBS. 2.5×10⁵ test cells and 100 μl of purified antibody at 10 μg/ml were added to a 96-well plate, and the plate was incubated at 4° C. for 1 hour. The cells were then washed 3 times with PBS, 100 μl of iFluor-labeled goat anti-human IgG, an Fcγ-specific fragment antibody, was added, and the plate was incubated at 4° C. for 45 minutes. Finally, the cells were washed 3 times with PBS, and the signals were read using FACS BD Calibur.

T3 sequence (Q9Z139 30-937): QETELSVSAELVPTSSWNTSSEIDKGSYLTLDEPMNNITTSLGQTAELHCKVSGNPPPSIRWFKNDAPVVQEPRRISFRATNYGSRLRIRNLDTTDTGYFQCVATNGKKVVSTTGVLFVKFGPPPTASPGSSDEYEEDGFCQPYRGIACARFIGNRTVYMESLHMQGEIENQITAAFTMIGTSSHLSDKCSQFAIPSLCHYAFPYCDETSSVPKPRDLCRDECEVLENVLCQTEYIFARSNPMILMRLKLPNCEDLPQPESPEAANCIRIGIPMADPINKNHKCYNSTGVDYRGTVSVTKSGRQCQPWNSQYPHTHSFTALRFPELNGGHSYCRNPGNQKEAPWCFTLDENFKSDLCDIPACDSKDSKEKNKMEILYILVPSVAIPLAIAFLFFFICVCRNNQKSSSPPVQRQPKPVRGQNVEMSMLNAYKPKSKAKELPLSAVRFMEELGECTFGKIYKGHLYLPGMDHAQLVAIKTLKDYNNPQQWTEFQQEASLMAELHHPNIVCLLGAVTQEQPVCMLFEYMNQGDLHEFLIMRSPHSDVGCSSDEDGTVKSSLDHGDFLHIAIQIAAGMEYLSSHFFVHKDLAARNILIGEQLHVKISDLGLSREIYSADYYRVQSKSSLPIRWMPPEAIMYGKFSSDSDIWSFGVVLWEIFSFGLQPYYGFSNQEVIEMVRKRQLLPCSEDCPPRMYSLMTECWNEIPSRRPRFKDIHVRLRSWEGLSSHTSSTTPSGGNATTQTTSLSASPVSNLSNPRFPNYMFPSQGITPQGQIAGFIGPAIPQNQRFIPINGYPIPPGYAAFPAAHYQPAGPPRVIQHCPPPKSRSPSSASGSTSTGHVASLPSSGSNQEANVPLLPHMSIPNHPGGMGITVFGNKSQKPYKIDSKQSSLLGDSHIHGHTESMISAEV

Geometric Mean : Alexa Fluor 647-H | Binder
8630 | B3
52800 | B8
75600 | B15
31400 | B17
54900 | B18
48500 | B19

Each binder was assayed against T1, human ROR1-His protein (fused with a …) (assay: SPR Biacore T200, antibody Fc-captured, antigen as analyte).
Description: as §1

Kd [nM] | koff [s⁻¹] | kon [M⁻¹ s⁻¹] | Binder
320 | 0.0686 | 214000 | B3
280 | 0.063 | 225000 | B17
757 | 0.117 | 155000 | B18
319 | 0.0587 | 184000 | B19

These binders were tested against T2, human ROR1 Frizzled-His domain protein … in the same assay as above.
Description: as §1

Kd [nM] | koff [s⁻¹] | kon [M⁻¹ s⁻¹] | Binder
247 | 0.111 | 449000 | B8
550 | 0.19 | 345000 | B15

The binders below were run against T3, mouse ROR1 expressed on CHO cells … (assay: flow cytometry, antibody at 10 ug/ml on CHO cells).
Description: as §4

binding result | Binder
binds | B14
binds | B16

What follows are binders tested against T4, human ROR1 expressed on CHO cells (CHO-K1/Human ROR1 stable cells) (human, UniProt Q01973 30-937) (assay: flow cytometry, 10 ug/ml antibody on Human ROR1-CHO-K1 cells (curve 1), fluorescent secondary antibody).
T4 construct: whole, on cells; also called CHO-K1/ROR1/Luc (Nanjing Probio, Cat #RD00949)
Description: as §4

T4 sequence (Q01973 30-937): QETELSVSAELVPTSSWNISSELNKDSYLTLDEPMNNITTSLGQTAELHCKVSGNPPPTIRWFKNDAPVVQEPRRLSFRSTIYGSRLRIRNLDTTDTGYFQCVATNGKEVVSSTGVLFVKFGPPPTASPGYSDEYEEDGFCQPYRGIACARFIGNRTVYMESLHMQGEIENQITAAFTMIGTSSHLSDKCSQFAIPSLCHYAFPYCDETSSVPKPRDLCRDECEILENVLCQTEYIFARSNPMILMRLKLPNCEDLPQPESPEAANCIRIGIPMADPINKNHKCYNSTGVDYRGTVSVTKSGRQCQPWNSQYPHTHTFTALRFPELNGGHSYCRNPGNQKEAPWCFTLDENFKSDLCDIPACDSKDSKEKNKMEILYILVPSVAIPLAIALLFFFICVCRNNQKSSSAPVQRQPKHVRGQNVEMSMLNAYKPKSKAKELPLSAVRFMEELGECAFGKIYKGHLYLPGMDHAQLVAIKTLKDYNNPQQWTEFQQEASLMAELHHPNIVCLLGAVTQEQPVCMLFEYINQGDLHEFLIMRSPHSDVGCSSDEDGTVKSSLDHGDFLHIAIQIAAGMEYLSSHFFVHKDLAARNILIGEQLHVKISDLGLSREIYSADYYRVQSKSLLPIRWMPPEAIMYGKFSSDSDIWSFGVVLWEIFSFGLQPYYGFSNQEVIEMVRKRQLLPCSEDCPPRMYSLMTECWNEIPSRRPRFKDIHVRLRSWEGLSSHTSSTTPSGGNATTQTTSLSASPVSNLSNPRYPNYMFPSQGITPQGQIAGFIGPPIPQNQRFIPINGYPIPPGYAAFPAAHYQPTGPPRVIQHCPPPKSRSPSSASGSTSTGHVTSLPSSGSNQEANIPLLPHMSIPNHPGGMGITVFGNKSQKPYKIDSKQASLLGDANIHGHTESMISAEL

Geometric Mean : Alexa Fluor 647-H | Binder
38500 | B3
55400 | B8
56400 | B15
61400 | B17
33400 | B18
28700 | B19
